Results published in patent US20080003617A1.

Target: A1 domain of von Willebrandt factor (vWf), His-tagged A1 antigen (human) (UniProt P04275)
Experiment: flow cytometry, yeast-displayed scFv with His-tagged A1 and Alexa-488 anti-His tag

percent of cells positive for A1 binding: 50 to 70%
Substance: scFv of the murine NMC-4 antibody, displayed on yeast (pYD-NMC4-scFv in EBY100) (from UniProt P32781 19-87)
